The results in this text go back to article PMC10080691, “Enzyme-Responsive Double-Locked Photodynamic Molecular Beacon for Targeted Photodynamic Anticancer Therapy” (Journal of the American Chemical Society, 2023).

Data set [1] deals with HeLa cells. Description: Intracellular ROS generation (H2DCFDA). Type of data set: cell-based, human. The conditions noted are these: no inhibitor pretreatment, 2 μM 1 h + 6 h, light λ > 610 nm, 23 mW cm-2, 14 J cm-2. As to the method: The enzyme-responsive intracellular ROS generation of 1 was then examined in A549 and HeLa cells using 2′,7′-dichlorodihydrofluorescein diacetate (H2DCFDA) as the ROS fluorescent probe. Once H2DCFDA is internalized, it will be deacetylated by the intracellular esterase, followed by oxidation by the intracellular ROS, leading to the formation of the highly fluorescent 2′,7′-dichlorofluorescein (DCF).[79] The cells were first pretreated with SB-3CT (10 μM) and/or CA-074 Me (25 μM) or simply the neat medium for 2 h, followed by incubation with 1 (2 μM) for a further 1 h. As a negative control, the cells were simply incubated with 14 (2 μM) for 1 h. After being rinsed with PBS, the cells were incubated in the medium for a further 6 h. Finally, the cells were incubated with H2DCFDA (10 μM) for 30 min, followed by dark or light (λ > 610 nm, 23 mW cm^–2, 14 J cm^–2) treatment. […] It can be seen that for the MMP-2-positive A549 cells, the fluorescence due to DCF was in the following order: 1 without pretreatment of the cells with the two inhibitors > 1 with pretreatment of the cells with either one of the two inhibitors > 1 with pretreatment of the cells with both inhibitors ≈ 14. […] This trend, which reflects the extent of recovery of ROS generation, was in accord with that of the fluorescence recovery inside the cells (Figure 5c,d). For the MMP-2-negative HeLa cells, the intracellular fluorescence remained very weak even for 1 without pretreatment of the cells with the two inhibitors because of the intrinsically low MMP levels in the cells. […]
or ER-Tracker Green (Thermo Fisher Scientific Inc., E34251) (1 μM for 15 min) in a serum-free medium at 37 °C. […] All the trackers were excited at 488 nm and their fluorescence was monitored at 500−570 nm, while the DSBDP moiety was excited at 638 nm and its fluorescence was monitored at 650−750nm. The images were digitized and analyzed using a Leica Application Suite X software. […]
at 500−550 nm. The images were digitized and analyzed using a Leica Application Suite X […]

Data set [2] has as its system skin of nude mice. Briefly: In vivo photodynamic effect on skin. The note with it: intravenous 20 nmol.
Procedure: The mice were first intravenously injected with either 1 or 6 (20 nmol) in 200 μL of distilled water containing 3% DMSO and 0.5% Tween 80 (v/v). The whole-body fluorescence images of the mice were monitored using an infrared imaging system over a period of 24 h.
At 6 h post-injection of 1 or 6, the mice were irradiated with the aforementioned laser source (680 nm, 0.3 W cm^–2) on a region of the skin (marked in Figure 8d) for 10 min, which were the conditions used for in vivo PDT as described above. The appearance of the irradiated region was then examined after 24 h. […] The skin tissues of these mice were then harvested and examined using the TUNEL assay.
Further evidence was obtained by the H&E staining of these skin tissues.
Female Balb/c nude mice (20–25 g) were injected with a solution of 1 or 6 (20 nmol) in 200
μL of distilled water containing 3% DMSO and 0.5% Tween 80 (v/v) through the tail vein.
vivo fluorescence imaging was performed before and after the injection at different time points
up to 24 h with an Odyssey infrared imaging system (excitation wavelength = 680 nm, emission
wavelength ≥ 700 nm). The images were digitized and analyzed using an Odyssey imaging
Three mice were used for each comp ound. To study the
photodynamic effect of these two compounds on the skin of the mice, a region of the skin was
illuminated with a diode laser (Biolitec Ceralas) at 680 nm operated at 0.24 W at 6 h post -
injection of these compounds. Illumination on a circu lar spot with a diameter of 1.0 cm (fluence
rate = 0.3 W cm-2) for 10 min led to a total fluence of 180 J cm–2. After 24 h, the mice were
sacrificed, and then the skin tissues were harvested. They were fixed with 4%
paraformaldehyde, dehydrated in an alcohol series, mixed with solutions of xylene and paraffin,
and then embedded in paraffin. The tissue sections were prepared by a Leica RM2235
microtome. After the H&E staining, the tissues were examined with a Nikon Eclipse Ni-E
upright fluorescence microscope. For the TUNEL staining assay, the skin tissues were dewaxed
and rehydrated in an alcohol series and then incubated with a Proteinase K solution (20 μg mL-
1) at room temperature for 30 min. After being rinsed with PBS three times, the tissue slides
were stained with 50 μL of Nucleotide Mix (a mixture of terminal deoxynucleotidyl transferase
and cyanine 3-labeled deoxyuridine triphosphate) of the one -step TUNEL assay kit (Beyotime,
Shanghai, China), and then the nuclei were stained with Hochest 33342 (10 μM) for 1 h at
room temperature. After being rinsed with PBS for three times, the tissue slides were examined
with a Zeiss LSM 880 NLO laser scanning microscope equipped with two solid-state 405 and
561 nm lasers. Hoechst 33342 was excited at 405 nm and its fluorescence was monitored at
410−500 nm, while the TUNEL staining cyanine 3 dye was excited at 561 nm and its
fluorescence was monitored at 570−620 nm.
The mark [3] stands for this setting: with laser irradiation (680 nm, 0.3 W cm-2, 10 min), 24 h after.

In the case of `CCN(CC)c1ccc2nc3ccc(/N=N/c4ccc(N(C)CCCNC(=O)OC[C@@H]5[C@@H]6CCc7nnn(CC(=O)NCCCC[C@@H]8NC(=O)CNC(=O)[C@H](CCCCN)NC(=O)[C@H](CCCNC(=N)N)NC(=O)[C@H](C(C)C)NC(=O)CNC(=O)[C@H](CC(C)C)NC(=O)[C@@H]9CCCN9C(=O)[C@H](CCCCN)NC(=O)[C@@H](N)CSCc9cc(COc%10ccc(C%11=C%12C(C)=C(I)C(/C=C/c%13ccc(OCCOCCOCCOC)cc%13)=[N+]%12[B-](F)(F)n%12c(/C=C/c%13ccc(OCCOCCOCCOC)cc%13)c(I)c(C)c%12%11)cc%10)cc(c9)CSC[C@@H](C(N)=O)NC(=O)[C@H](CCCCN)NC(=O)[C@H](CCCCN)NC(=O)CNC(=O)[C@H](CC(C)C)NC(=O)[C@H](Cc9ccccc9)NC(=O)CNC(=O)[C@H](CCCCN)NC(=O)CNC8=O)c7CC[C@@H]65)cc4)cc3[n+](-c3ccccc3)c2c1` [compound 1], the “intracellular ROS generation (DCF fluorescence)” value in data set [1] is on record as “very weak”. In addition, the “appearance of irradiated skin region after 24 h” value in data set [2] (laser 680 nm, 0.3 W cm-2, 10 min at 6 h post-injection) was “no noticeable change”. For the same molecule, in data set [2] (setting [3]), the “H&E staining of skin tissue” value is reported as “virtually intact” and the “TUNEL assay of skin tissue” value is recorded as “negligible”. In addition, in data set [2] (without laser irradiation), the “H&E staining of skin tissue” value is given as “virtually intact” and the “TUNEL assay of skin tissue (fluorescence intensity)” value is “negligible”.
